The subject of data set [1] is human neurons cocultured with mouse glia. Description: Aβ42 fractionation experiment, MTT assay of supernatant and pellet. Type of data set: cell-based. To be noted: fractions of Aβ42 preaggregated at 37°C for 24 hours, 20,000g 15 minutes; 0.2 μM chronic, DIV45. How it is done:
Aggregation mixtures were centrifuged at 20,000g for 15 minutes at 4°C. The supernatant (enriched in monomer, small oligomers and residual larger species) was removed without disturbing the pellet. The pellet (large aggregates and high-molecular-weight oligomers) was resuspended in DMSO to the original volume. Supernatant and the resuspended pellet were administered to neurons, independently, at the concentration of 0.2 μM following the same protocol of administration used in this study (Figure 1A) and described above.
(Tetrazolium assays rely on reduction of a dye to a coloured formazan, in cell work by metabolically active cells.)

Another data set deals with human neurons. Briefly: NLS-TdTomato cytotoxicity assay (cytoplasmic leakage of NLS-TdTomato). To be noted: 5% DMSO or 200 μM hydrogen peroxide, each applied for 4 hours, DIV30. The method, then:
The MTT assay employs yellow tetrazolium dye that is reduced to a purple formazan crystal by viable cells with active metabolism ([21]). Because it measures metabolic activity in all cells, this assay serves as a broad cytotoxicity read out for the entire glia/neuron coculture system. The amount of formazan produced is then measured because it is directly proportional to the number of viable cells ([21]) (Figure 1B and Supplemental Figure 1A). The nuclear localization TdTomato assay, conversely, enables monitoring of cellular stress by tracking the localization of fluorescent TdTomato fused to a nuclear localization signal. Under healthy conditions, the nuclear localization signal directs the NLS-TdTomato to the nucleus. When toxicity in a cell causes a reduction in ATP levels, NLS-TdTomato leaks out of the nucleus into the cytoplasm, which we scored as an index of toxicity (Figure 1, C and D, and Supplemental Figure 1, B–D). Because the reporter is expressed only in neurons, this assay specifically assesses neurotoxicity within the coculture. We developed this assay because it can be performed on live cells and reflects decreases in ATP levels in these cells. […]
To assess neuronal cytotoxicity induced by Aβ peptides, we employed a novel Td-Tomato cytotoxicity assay that we developed. […] Neurons displaying cytoplasmic Td-Tomato were counted as indicators of cytotoxicity. […]

“pellet: pellet of centrifuged preaggregated Aβ42, large aggregates and high-molecular-weight oligomers, resuspended in DMSO”: in data set [1], the “Loss of viability, MTT assay (in words)” value is on record as “same loss of viability”. As to `OO` [hydrogen peroxide], the “Validation of the NLS-TdTomato assay: nuclear-to-cytoplasmic shift of NLS-TdTomato (in words)” value with human neurons was “rapidly induced the nuclear-to-cytoplasmic shift of NLS-TdTomato”.

For “supernatant: supernatant of centrifuged preaggregated Aβ42, enriched in monomer, small oligomers and residual larger species”, the “Loss of viability, MTT assay (in words)” value in data set [1] is “same loss of viability”.

For the origin of these results see paper PMC12700558, “Aggregation shifts amyloid-β peptides from synaptogenic to synaptotoxic” (The Journal of Clinical Investigation, 2025).
